From US20230279079A1 (CHANG GUNG MEMORIAL HOSPITAL LINKOU, published 2023)
Positions count from the first letter of the chain named.

B1: EY 5A (antibody, V domains shown)
VH: EVQLVESGPGLVKPSGTLFLTCTVSGGSISNYYWSWIRQPPGKALEWIGFIYSNGNTDYNPSLQSRVTISGDTSKNQFSLNLRSVTAADTAVYYCARGPGPATGGSLDYWGQGTMVTVSS
VL: not shown
B2: FI 1C (antibody, V domains shown)
VH: EVQLVESGGGLVKPGGSLRLSCAASGFTFSDYYMSWIRQAPGKGLEWVSYISSSGSTIYYADSVKGRFTISRDNAKNSLYLQMNSLRAEDTAVYYCARRSNRFLIAFDIWGQGTMVTVSS
VL: QSALTQPASVSGSPGQTITISCTGTSSDVGGYNYVSWYQQHPGKAPKLMIYEVSNRPSGVSNRFSGSKSGNTASLTISGLQAEDEADYYCSSYTSSSTLVVFGGGTKLTVP
B3: FD 7D (antibody, V domains shown)
VH: EVQLVESGAEVKKPGESLRISCKGSGYSFTSYWISWVRQMPGKGLEWMGRIDPSDSYTNYSPSFQGHVTISADKSISTAYLQWSSLKASDTAMYYCARHSDCSSTSCYFVDAFDIWGQGTMVTVSS
VL: not shown
B4: EY 6A-1 (antibody, V domains shown)
VH: EVQLVESGGGVVQPGRSLRLSCAASAFTFSSYDMHWVRQAPGKGLEWVAVISYDGSNKYYADSVKGRFTISRDNSKNTLYLQMNSLRAEDTAVYYCAKDGGKLWVYYFDYWGQGTLVTVSS
VL: not shown
B5: FG 12C (antibody, V domains shown)
VH: EVQLVESGGGLVQPGRSLRLSCAASGFTFDDYAMHWVRQAPGKGLEWVSGISWNSGSIGYADSVKGRFTISRDNAKNSLYLQMNSLRAEDTALYYCAKDMRVHDYGDYYFDYWGQGTLVTVSS
VL: SYELTQPPSVSVAPGKTARITCGGNNIGSKSVHWYQQKPGQAPVLVIYYDSDRPSGIPERFSGSNSGNTATLTISRVEAGDEADYYCQVWDSSSDHPVFGGGTKLTVL
B6: FN 8C (antibody, V domains shown)
VH: QVQLVESGGGVVQPGRSLRLSCAASGFTFSSYGMHWVRQAPGKGLEWVAVISYDGSNKYYADTVKGRFTISRDNSKNTLYLQMNSLRAEDTAVYYCARERTYYDILTGYRHYYGMDVWGQGTTVTVSS
VL: B5 VL with K16Q, I47V, Y49D, P97W
B7: FD 8B (antibody, V domains shown)
VH: EVQLLESGAEVKKPGASVKVSCKVSGYTLTELSMHWVRQAPGKGLEWMGGFDPEDGETIYAQKFQGRVTMTEDTSTDTAYMELSSLRSEDTAVYYCATAAAINCSSTSCYYYYYYYGMDVWGQGTTVTVSS
VL: not shown
B8: FD 1E (antibody, V domains shown)
VH: EVQLLESGGGLVKPGGSLRLSCAASGFTFSSYSMNWVRQAPGKGLEWVSSISSSSSYIYYADSVKGRFTISRDNAKNSLYLQMNSLRAEDTAVYYCASLAAAGPETYYYYGMDVWGQGTMVTVSS
VL: not shown
B9: FD 11C (antibody, V domains shown)
VH: EVQLLESGPGLVKPSETLSLTCTVSGGSISSSSYYWGWIRQPPGKGLEWIGSIYYSGSTYYNPSLKSRVTISVDTSKNQFSLKLSSVTAADTAVYYCAREYYYGSETKKYYYYYGMDVWGQGTTVTVSS
VL: not shown
B10: FJ 1C (antibody, V domains shown)
VH: QVQLQESGPGLVKPSETLSLTCTVSGYSISSGYYWGWIRQPPGKGLEWIGSIYHSGSTYYNPSLKSRVTISVDTSKNQFSLKLSSVTAADTAVYYCARDKALLWFGELFTNLFDYWGQGTLVTVSS
VL: QSALTQPASVSGSPGQSITISCTGTSSDVGGYNYVSWYQQHPGKAPKLMIYEVSNRPSGVSNRFSGSKSGNTASLTISGLQAEDEANYYCSSYTSSSTLVFGGGTKLTVL
B11: EZ 4C kappa (antibody, V domains shown)
VH: EVQLVESGPGLVKPSETLSLTCTVSGGSVSSGNNYWSWIRQPPGKALEWIGYIYYSGSTKYNPSLKSRVTMSVGTSKNQFSLKVNSVTAADTAMYYCARAPSAPFGGLFDWILPKGINNWGQGTLVTVSS
VL: EIVLTQSPSTLSASVGDRVTITCRTSQSIRSWLAWYQQKPGKAPKLLIFEASTLESGVPERFSGSGSGAEFTLTISSLQPDDFATYYCQQYNGYSYSFGQGTKVEIR
notes: also called EZ 4C-1
B12: EY 8A (antibody, V domains shown)
VH: EVQLVESGPGLVKPSQTLSLTCTVSGGSISSGSYYWSWIRQPAGKGLEWIGRIYTSGSTNYNPSLKSRVTISVDTSKNQFSLKLSSVTAADTAVYYCAKGHVISGYDDYYYYYGMDVWGQGTTVTVSS
VL: not shown
B13: FD 11D (antibody, V domains shown)
VH: EVQLVESGGGVVQPGRSLRLSCAASGFTFSSYGMHWVRQAPGKGLEWVAVISYDGSNKYYADSVKGRFTISRDNSKNTLYLQMNSLRAEDTAVYYCAKEGAGSGWYRHHKPGYYFDYWGQGTLVTVSS
VL: not shown
B14: EZ 4A (antibody, V domains shown)
VH: EVQLVQSGAEVKKPGESLKISCKGSGYSFTSYWIGWVRQMPGKGLEWMGIIYPGDSDTRYSPSFQGQVTISADKSISTAYLQWSSLKASDTAMYYCARSPIAADLFDYWGQGTLVTVSS
VL: not shown
B15: EZ 7B (antibody, V domains shown)
VH: EVQLVESSPGLVKPSETLSLTCTVSGGSISSYYWSWIRQPPGKGLEWIGYIYYSGSTNYNPSLKSRVTISVDTSKNQFSLKLSSVTAADTAVYYCARRVFGPVLPSKLGGSYWGGGAFDIWGQGTMVTVSS
VL: not shown

Key:
[1] = molecular target: T1, SARS-CoV-2 nucleocapsid protein (SARS-CoV-2, UniProt P0DTC9 1-419); test: ELISA on recombinant protein
T1 construct: also called N protein

[2] = molecular target: spike glycoprotein of wild type SARS-CoV-2 virus (SARS-CoV-2, UniProt P0DTC2 14-1273); test: cell-based or functional assay
[3] = molecular target: T2, Human coronavirus OC43 spike extracellular domain (human coronavirus OC43, UniProt P36334 14-1297); test: ELISA
T2 construct: extracellular domain

SARS spike S1 subunit = molecular target: T3, SARS spike S1 subunit (severe acute respiratory syndrome …, UniProt P59594 14-667); test: ELISA
T3 construct: domain: S1 subunit

[4] = molecular target: T4, SARS-CoV-2 spike S2 subunit (SARS-CoV-2, UniProt P0DTC2 686-1213); test: ELISA
T4 construct: domain: S2 subunit

[5] = molecular target: T5, MERS spike extracellular domain (Middle East respiratory syndrome …, UniProt K9N5Q8 18-1296); test: ELISA
T5 construct: extracellular domain

[6] = molecular target: T6, SARS-CoV-2 spike receptor binding domain (RBD) (SARS-CoV-2, UniProt P0DTC2 319-541); test: ELISA
T6 construct: also called SARS-CoV-2 RBD

Row | Binder | binding result [1] | Neutralization by FMNT EC50 [2] [nM] | Neutralization by PRNT EC50 [2] [nM] | binding result [3] | binding result (SARS spike S1 subunit) | binding result [4] | binding result [5] | binding result [6]
1 | B1 | binds | – | – | – | – | – | – | –
2 | B2 | – | 2.24 | 16.7 | no binding | no binding | no binding | no binding | –
3 | B3 | – | – | – | no binding | no binding | no binding | no binding | no binding
4 | B4 | – | 22.5 | 133 | no binding | binds | no binding | no binding | –
5 | B5 | – | – | – | no binding | no binding | no binding | no binding | no binding
6 | B6 | – | – | – | no binding | no binding | no binding | no binding | no binding
7 | B7 | – | – | – | no binding | no binding | no binding | no binding | no binding
8 | B8 | – | – | 110 | no binding | no binding | no binding | no binding | no binding
9 | B9 | – | – | – | no binding | no binding | no binding | no binding | no binding
10 | B10 | – | – | 55.5 | no binding | binds | no binding | no binding | no binding
11 | B11 | binds | – | – | – | – | – | – | –
12 | B12 | binds | – | – | – | – | – | – | –
13 | B13 | – | – | – | binds | binds | no binding | binds | no binding
14 | B14 | binds | – | – | – | – | – | – | –
15 | B15 | binds | – | – | – | – | – | – | –
